“And” between values parts separate entries of the source, which are not always exact repeats. Equal values may be shown once. Where no end group is shown, it is not given here. [ ]: non-standard residue; d: D form. The star is where a group is joined. Biotin = O=C1N[C@H]2[C@H](CS[C@H]2CCCCC(=O)*)N1; AEEA = NCCOCCOCC(=O)O
B1: F194 (peptide)
peptide: XEESFYSCLESLVNGGAERSDGQWEGCREE
modifications: N-terminal Lig (lysine with a 2-aminohydroxyacetyl group on the epsilon amino group)
B2: F254 (peptide)
peptide: ESFYSCLESLVAGPAEKSRGQWEGCR[AEEA][AEEA]GYSWLRDVLMEKQAQLKREGSVGRQE
modifications: cysteine pairing not given here
notes: 111 conjugated by POX
B3: F191 (peptide)
peptide: EEGVDEVRAWLWCQISGLGCESEEX
modifications: C-terminal Lig (lysine with a 2-aminohydroxyacetyl group on the epsilon amino group)
B4: F119 (peptide)
peptide: XGSLDESFYDWFERQLGKK
modifications: N-terminal Lig (lysine with a 2-aminohydroxyacetyl group on the epsilon amino group)

These binders were tested against T1, IGF-1R on SW480 cells (UniProt P08069 31-1367, limits assumed) (assay: cell-based or functional assay).
T1 sequence (P08069 31-1367 limits assumed): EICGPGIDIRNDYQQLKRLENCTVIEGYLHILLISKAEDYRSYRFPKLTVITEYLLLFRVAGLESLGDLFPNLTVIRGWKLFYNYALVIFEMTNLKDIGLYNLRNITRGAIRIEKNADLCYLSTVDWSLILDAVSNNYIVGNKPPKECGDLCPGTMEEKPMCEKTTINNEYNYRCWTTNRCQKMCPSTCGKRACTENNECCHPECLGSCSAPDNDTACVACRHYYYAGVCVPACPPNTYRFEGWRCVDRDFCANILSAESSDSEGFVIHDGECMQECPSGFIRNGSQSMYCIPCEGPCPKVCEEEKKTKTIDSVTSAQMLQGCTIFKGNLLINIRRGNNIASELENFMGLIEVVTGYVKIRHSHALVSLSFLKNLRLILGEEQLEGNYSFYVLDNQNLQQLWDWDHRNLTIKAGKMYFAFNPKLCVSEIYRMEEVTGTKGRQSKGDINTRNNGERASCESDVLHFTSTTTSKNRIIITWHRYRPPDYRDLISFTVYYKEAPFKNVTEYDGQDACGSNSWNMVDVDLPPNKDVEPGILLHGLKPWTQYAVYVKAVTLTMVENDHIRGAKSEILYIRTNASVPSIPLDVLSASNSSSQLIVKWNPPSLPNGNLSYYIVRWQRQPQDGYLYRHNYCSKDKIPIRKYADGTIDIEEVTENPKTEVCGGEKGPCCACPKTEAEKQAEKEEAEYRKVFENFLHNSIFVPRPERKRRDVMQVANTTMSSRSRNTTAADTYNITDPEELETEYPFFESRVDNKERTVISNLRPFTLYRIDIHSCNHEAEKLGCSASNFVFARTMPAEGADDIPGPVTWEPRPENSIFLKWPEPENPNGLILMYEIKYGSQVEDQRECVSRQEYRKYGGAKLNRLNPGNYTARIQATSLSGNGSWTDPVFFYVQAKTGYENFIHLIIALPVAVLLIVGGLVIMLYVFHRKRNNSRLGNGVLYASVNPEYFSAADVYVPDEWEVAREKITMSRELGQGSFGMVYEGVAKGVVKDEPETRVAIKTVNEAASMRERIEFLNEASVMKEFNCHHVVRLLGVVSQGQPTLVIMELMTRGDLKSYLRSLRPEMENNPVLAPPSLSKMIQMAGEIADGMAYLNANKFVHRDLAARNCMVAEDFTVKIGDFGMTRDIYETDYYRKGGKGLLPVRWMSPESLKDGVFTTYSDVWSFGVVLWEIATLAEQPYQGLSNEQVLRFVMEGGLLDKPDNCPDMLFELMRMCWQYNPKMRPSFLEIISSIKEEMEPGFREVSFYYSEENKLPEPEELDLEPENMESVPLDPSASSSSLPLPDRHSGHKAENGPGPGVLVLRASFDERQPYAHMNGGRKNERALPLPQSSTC
With VQDDCRGRPCGDADSFYEWFDQQAS [F263, listing 1 of 2 here] the “IC50 in SW480 (M) in presence of IGF-1” value was over 1e-06 M and the “IC50 in SW480 (M), peptide alone” value was over 1e-06 M. For RQWDCRGRPCGDAESFYEWFDQQRS [F264], the “IC50 in SW480 (M) in presence of IGF-1” value was over 1e-05 M and the “IC50 in SW480 (M), peptide alone” value was over 1e-05 M. In the case of ELQGFCELLATVTGVTGLGCLDYQPIE [F202], the “IC50 in SW480 (M) in presence of IGF-1” value is reported as over 1e-05 M. With SFYSCLESLVNGPAEKSRGQWDGCR [F249] the “IC50 in SW480 (M) in presence of IGF-1” value was over 1e-05 M and the “IC50 in SW480 (M), peptide alone” value was over 1e-05 M.

What follows are binders tested against IGF-1R on MCF-7 cells (MCF-7S8, MCF7) (human, UniProt P08069 31-1367) (assay: cell-based or functional assay).
IGF-1R on MCF-7 cells (MCF-7S8, MCF7), sequence (P08069 31-1367): as the sequence (P08069 31-1367 limits assumed) above
In the case of QFYGCLLDLSLGVPSFGWRRRCITA [F138], the “IC50 in MCF-7S8, in presence of IGF-1” value is reported as 500 nM. For EISFRCQLFVLAGMHPCPVDVGGEGFE [F170], the “IC50 in MCF-7S8, in presence of IGF-1” value was 2000 nM.

What follows are binders tested against T2, human insulin-like growth factor-1 receptor (HIGF-1R) (human, UniProt P08069 31-1367) (assay: 125I-IGF-1 displacement, SPA-assay).
T2 construct: Detergent-solubilised receptor purified on WGA-agarose; also called HIGFIR
T2 sequence (P08069 31-1367 limits assumed): as the sequence (P08069 31-1367 limits assumed) above
Text: In certain cases, a scintillation proximity assay (SPA assay) was used to determine IGF-1R affinity.
With VQDDCRGRPCGDADSFYEWFDQGYGSSSRRAPQT [F404] the Kd was 62000 nM. Ac-SFYSCLESLVQGPAEKSRGQWEGCRK (cysteine pairing not given here, Second row labelled F365) [F365 (row r332, SEQ ID NO 200)] showed a Kd of 260 nM. EGRVDDAFYEWFERQLGEELCQSWGVRIGWLAGLCPE [F410] showed a Kd of 37000 nM. Work on ESYGDCRDRPCGDAPNFYDWFVQQASE [F270] yielded a Kd of 7000 nM. SQDQVGASLGSAISGRGGLSNFYSCLTSLATDTTRPSRRPWERCR [F397] was tested, and the Kd was 28000 nM. For B1, the Kd was 55000 nM. For RQFYGCLLDLSLGVPSFGWRRRCITAR [F407], the Kd was 69000 nM. B2 gave a Kd of 82000 nM. Work on SFYSCLESLVNGPAEKFRGRRDGCR [F380] yielded a Kd of 46000 nM. With GVGGWRYGSFPSFSSQTRS [F431] the Kd was 1.7 nM. For VQDDCRGRPCGDADSFYEWFDQQAS [F263, listing 2 of 2 here], the Kd was 2500 nM. QFYGCLLDLSLGVPSFGWRRRCITA (N-terminal Pox (8-amino-3,6-dioxaoctanoic acid)) [F406] showed a Kd of 14000 nM. With {Biotin-AEEA}-SFYSCLESLVQGPAEKSRGQWEGCRK (cysteine pairing not given here) [F414] the Kd was 65000 nM. Binder Ac-SFYSCLESLVTGPKERSRGQWEGCRR (cysteine pairing not given here) [F306] has a Kd of 100 nM.

The binders below were run against IGF-1R on L6 cells (assay: cell-based or functional assay).
For QFYGCLLDLSLGVPSFGWRRRCITA [F138], the “IC50, down regulation of 3 nM IGF-1 stimulation to basal level, IRS-1, L6 cells” value (“IC50, down regulation … IRS-1, L6 cells” for short) was 300 nM, the “IC50, down regulation of 3 nM IGF-1 stimulation to basal level, MAPK42, L6 cells” value (“IC50, down regulation … MAPK42, L6 cells” below) was 300 nM and the “IC50, down regulation of 3 nM IGF-1 stimulation to basal level, MAPK44, L6 cells” value (“IC50, down regulation … MAPK44, L6 cells” below) was 300 nM and 100 nM. The “IC50, down regulation of 3 nM IGF-1 stimulation to basal level, PKB/Akt, L6 cells” value was 300 nM and 100 nM. For DFYGCLLDLSLGVPSLGWRRRCITA [F429], the “IC50, down regulation of 3 nM IGF-1 stimulation to basal level, IGF-IR, L6 cells” value was 50 nM, the “IC50, down regulation … IRS-1, L6 cells” value was 40 nM and the “IC50, down regulation … MAPK42, L6 cells” value was 300 nM. For the same binder, the “IC50, down regulation … MAPK44, L6 cells” value was 100 nM and the “IC50, down regulation of 3 nM IGF-1 stimulation to basal level, PKB/Akt, L6 cells” value was 100 nM. SFYSCLESLVKRPTERSRGQWVGCR [F320] was tested, and the “IC50, down regulation of 3 nM IGF-1 stimulation to basal level, IGF-IR, L6 cells” value was 2000 nM and > 1000 nM, the “IC50, down regulation … IRS-1, L6 cells” value was over 2000 nM and the “IC50, down regulation … MAPK42, L6 cells” value was 1000 nM. The “IC50, down regulation … MAPK44, L6 cells” value was 1000 nM.

Each binder was assayed against T2, human insulin-like growth factor-1 … (assay: 125I-IGF-1 displacement, PEG-assay).
Protocol: IGF-1R affinity studies were generally performed as follows. […] The day before harvest cells were moved to serum free conditions and before harvest the cells were rinsed with and ice cold PBS solution. The cells were solubilized in cold lysis buffer (4 ml lysis buffer/1×10⁸ cells); vortexed vigorously to lysis in lysis buffer (50 mM Hepes (pH 8.0); 150 mM NaCl; 1% Triton X-100; 2 mM EDTA; 10 μg/mlaprotinin; 0.5 mM PEFABLOC (Roche)); and the lysate centrifuged at 4° C., 20000 rpm, for 15 minutes. […] In some cases, human insulin receptor (HIR) affinity for select test peptides was similarly measured.
KLHNLMFYYGLQRLVWGAGLG [F159] showed a Kd of 5000 nM. B3 was tested, and the Kd was 54000 nM. ESFYSCLASLVAGTPWPKGGSWERCREE [F230] showed a Kd of 20000 nM. With TFYSCLASLLTGPREQNRGAWERCRR [F142] the Kd was 40 nM. With DDDKGSLDESFYDWFERQLGTFYSCLASLLTGTPQPNRGPWERCR [F110] the Kd was 1000 nM. B4 was tested, and the Kd was 1000 nM. ESFYSCLESLVNGPAEKSRGQWDGCRE [F215] was tested, and the Kd was 82000 nM. ETFYKCLASVLTGSTQTKRRPWEGCREE [F229] showed a Kd of 37000 nM. With EDHRLCGTDEYLMQDLFVRGLCRLIWE [F164] the Kd was 4000 nM. Binder SFYSCLESLVNGPAEKSRGQWDGCRK [F250] has a Kd of 42000 nM. GVRAMSFYDALVSVLGLGPSG [F157] was tested, and the Kd was 2000 nM. ELSFACLLSQLSGVVLPDCLLGEDE [F201] showed a Kd of 43000 nM. VEGRGLFYDLLRQLLARRQNG [F158] showed a Kd of 900 nM. FFYRCLSRLLGGQLGSRLGLSCIGD [F139] gave a Kd of 8000 nM. EWLEQERAWIWCEIQGSGCRAE [F216] gave a Kd of 10000 nM. EGRVDDAFYEWFERQLGE [F213] gave a Kd of 800 nM.

Target: T1, IGF-1R on SW480 cells
Assay: cell-based or functional assay
Remark: another data set of the same source
In the case of DFYGCLLDLSLGVPSLGWRRRCIT [F428], the “IC50, IGF-1 (10 nM)-induced proliferation of SW480 cells, exp. 13717-019” value is reported as 1000 nM and the “IC50, IGF-1 (10 nM)-induced proliferation of SW480 cells, exp. 13717-027” value is reported as 1000 nM. In the case of QFYGCLLDLSLGVPSFGWKKKCITA [F392], the “IC50, IGF-1 (10 nM)-induced proliferation of SW480 cells, exp. 13262-025” value is reported as over 10000 nM and the “IC50, IGF-1 (10 nM)-induced proliferation of SW480 cells, exp. 13262-027” value is reported as 1000 nM. With VQDDCRGRPCGDADSFYEWFDQQAGYGSSSRRAPQT [F364] the “IC50, IGF-1 (10 nM)-induced proliferation of SW480 cells, exp. 13262-015” value (“IC50 … exp. 13262-015” below) was over 10000 nM. With SFYSCLESLVSGPAEKSHRRWEACR [F321] the “IC50, IGF-1 (10 nM)-induced proliferation of SW480 cells, exp. 13262-014” value was over 10000 nM. With DFYGCLLDLSLGVPSLGWRRRCITA [F429] the “IC50, IGF-1 (10 nM)-induced proliferation of SW480 cells, exp. 13717-019” value was 500 nM and the “IC50, IGF-1 (10 nM)-induced proliferation of SW480 cells, exp. 13717-027” value was 1000 nM. With ESFYSCLASLVTGIPRSNSGTQVFCREE [F227] the “IC50 … exp. 13262-015” value was over 10000 nM. With SFYSCLESLVKRPTERSRGQWVGCR [F320] the “IC50, IGF-1 (10 nM)-induced proliferation of SW480 cells, exp. 13262-014” value was over 10000 nM. With IFYSCLASLLHGGPQRNTGPWERCRR [F141] the “IC50 … exp. 13262-015” value was over 10000 nM.

Reference: patent publication US20110039779A1 (published 2011)
